In US12295987B2, “Method of using a GIP/GLP1 co-agonist for diabetes” (Eli Lilly and Company, priority 2018, dated 2025):
Numbered stars: 1 amine (or outer) side, 2 acyl side, 3 side chain; on linkers, the order of the positions; unused ones are H or OH. Square brackets hold non-standard residues; d marks the D form. Side chains are listed from the residue outwards. Ends that are not written are not given here. * marks the point of attachment. C20 diacid = O=C(O)CCCCCCCCCCCCCCCCCCC(=O)*; γGlu = O=C(O)[C@H](CCC(=O)[*:2])N[*:1]; AEEA = NCCOCCOCC(=O)O; Aib = CC(C)(N)C(=O)O

Target: T1, human gastric inhibitory peptide receptor (hGIPR) (Homo sapiens, UniProt P48546)
T1 construct: expressed in transfected cells; host or cells: HEK293
T1 sequence (P48546 22-466): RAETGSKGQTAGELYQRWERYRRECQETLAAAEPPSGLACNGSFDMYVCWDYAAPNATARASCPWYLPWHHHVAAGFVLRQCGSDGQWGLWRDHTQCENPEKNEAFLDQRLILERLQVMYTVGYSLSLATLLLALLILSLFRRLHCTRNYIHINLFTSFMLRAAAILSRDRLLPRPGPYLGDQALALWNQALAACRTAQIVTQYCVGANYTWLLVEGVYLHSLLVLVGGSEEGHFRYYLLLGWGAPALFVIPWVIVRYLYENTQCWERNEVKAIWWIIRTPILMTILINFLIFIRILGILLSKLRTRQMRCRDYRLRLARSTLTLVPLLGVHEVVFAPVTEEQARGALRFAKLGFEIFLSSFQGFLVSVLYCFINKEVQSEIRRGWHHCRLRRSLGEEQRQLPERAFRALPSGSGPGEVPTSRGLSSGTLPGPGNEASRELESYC
Assay: cAMP pharmacological functional assay in presence of 0.1% casein, hGIPR
Assay type: cell-based
Settings: ratio of hGIPR to hGLP1R cAMP EC50 ratios

Point of comparison: “Y-Aib-EGT-αMeF(2F)-TSD-4Pal-SI-αMeL-LD-Orn-K((2-[2-(2-Amino-ethoxy)-ethoxy]-acetyl)2-(γGlu)-CO—(CH2)16—CO2H)AQ-Aib-EFI-(D-Glu)-αMeY-LIEGG-NH2 (YXEGTXTSDXSIXLDXKAQXEFIXXLIEGG; Aib, αMeF(2F), 4Pal, αMeL, Orn, αMeY, D-Glu; C18 diacid lipidation; amide; (2)..(2) Xaa at position 2 is Aib; (6)..(6) Xaa at position 6 is alpha-methyl-Phe(2F); (10)..(10) Xaa at position 10 is 4Pal; (13)..(13) Xaa at position 13 is alpha-methyl-Leu; (16)..(16) Xaa at position 13 is Orn; MOD_RES (17)..(17) Lys at position 17 is chemically modified by conjugation of the epsilon-amino group of the Lys side chain with (2-[2-(2-amino-ethoxy)-ethoxy]-acetyl)2-(gamma-Glu)-CO-) [Peptide 265]”, “[hGIPR/hGLP1R] EC50 Ratio” value 2.99. Against it:
- Y-Aib-EGTFTSDYSILLDSK((2-[2-(2-Amino-ethoxy)-ethoxy]-acetyl)2-(γGlu)-CO—(CH2)18—CO2H)AQ-Aib-AFIEYLIEGGPSSGAPPPS-NH2 (Y[Aib]EGTFTSDYSILLDSK([AEEA-AEEA-γGlu-C20 diacid])AQ[Aib]AFIEYLIEGGPSSGAPPPS-NH2; N-terminus assumed; SMILES CC[C@H](C)[C@H](NC(=O)[C@H](CC(C)C)NC(=O)[C@H](Cc1ccc(O)cc1)NC(=O)[C@H](CCC(=O)O)NC(=O)[C@@H](NC(=O)[C@H](Cc1ccccc1)NC(=O)[C@H](C)NC(=O)C(C)(C)NC(=O)[C@H](CCC(N)=O)NC(=O)[C@H](C)NC(=O)[C@H](CCCCNC(=O)COCCOCCNC(=O)COCCOCCNC(=O)CC[C@H](NC(=O)CCCCCCCCCCCCCCCCCCC(=O)O)C(=O)O)NC(=O)[C@H](CO)NC(=O)[C@H](CC(=O)O)NC(=O)[C@H](CC(C)C)NC(=O)[C@H](CC(C)C)NC(=O)[C@@H](NC(=O)[C@H](CO)NC(=O)[C@H](Cc1ccc(O)cc1)NC(=O)[C@H](CC(=O)O)NC(=O)[C@H](CO)NC(=O)[C@@H](NC(=O)[C@H](Cc1ccccc1)NC(=O)[C@@H](NC(=O)CNC(=O)[C@H](CCC(=O)O)NC(=O)C(C)(C)NC(=O)[C@@H](N)Cc1ccc(O)cc1)[C@@H](C)O)[C@@H](C)O)[C@@H](C)CC)[C@@H](C)CC)C(=O)N[C@@H](CCC(=O)O)C(=O)NCC(=O)NCC(=O)N1CCC[C@H]1C(=O)N[C@@H](CO)C(=O)N[C@@H](CO)C(=O)NCC(=O)N[C@@H](C)C(=O)N1CCC[C@H]1C(=O)N1CCC[C@H]1C(=O)N1CCC[C@H]1C(=O)N[C@@H](CO)C(N)=O) [Peptide 9] — lower, 2.45
- Y-Aib-EGT-αMeF(2F)-TSDYSI-αMeL-LDEK((2-[2-(2-Amino-ethoxy)-ethoxy]-acetyl)2-(γGlu)-CO—(CH2)18—CO2H)AQ-Aib-EFI-(D-Glu)--αMeY-LIEGGPSSGAPPPS-NH2 (YXEGTXTSDYSIXLDEKAQXEFIXXLIEGGPSSGAPPPS; Aib, αMeF(2F), αMeL, D-Glu, αMeY; lipidated K; amide; (2)..(2) Xaa at position 2 is Aib; (6)..(6) Xaa at position 6 is alpha-methyl-Phe(2F); (13)..(13) Xaa at position 13 is alpha-methyl-Leu; MOD_RES (17)..(17) Lys at position 17 is chemically modified by conjugation of the epsilon-amino group of the Lys side chain with (2-[2-(2-amino-ethoxy)-ethoxy]-acetyl)2-(gamma-Glu)-CO-(CH2)18- CO2H; (20)..(20) Xaa at position 20 is Aib; (24)..(24) Xaa at positi) [Peptide 222] — higher, 3.77
- Y-Aib-EGT-αMeF-TSDYSI-αMeL-LDEK((2-[2-(2-Amino-ethoxy)-ethoxy]-acetyl)2-(γGlu)-CO—(CH2)16—CO2H)AQ-Aib-EFI-(D-Glu)-YLIEGGPSSGAPPPS-NH2 (YXEGTXTSDYSIXLDEKAQXEFIXYLIEGGPSSGAPPPS; Aib, αMeF, αMeL, D-Glu; lipidated K; amide; (2)..(2) Xaa at position 2 is Aib; (6)..(6) Xaa at position 6 is alpha-methyl-Phe; (13)..(13) Xaa at position 13 is alpha-methyl-Leu; MOD_RES (17)..(17) Lys at position 17 is chemically modified by conjugation of the epsilon-amino group of the Lys side chain with (2-[2-(2-amino-ethoxy)-ethoxy]-acetyl)2-(gamma-Glu)-CO-(CH2)16- CO2H; (20)..(20) Xaa at position 20 is Aib; (24)..(24) Xaa at position 2) [Peptide 213] — higher, 5.58
- Y-Aib-EGT-αMeF(2F)-TSDHSI-αMeL-LD-Dab-K((2-[2-(2-Amino-ethoxy)-ethoxy]-acetyl)2-(γGlu)-CO—(CH2)18—CO2H)AQ-Aib-TFI-(D-Glu)-YLIEGGPSSGAPPPS-NH2 (YXEGTXTSDHSIXLDXKAQXTFIXYLIEGGPSSGAPPPS; Aib, αMeF(2F), αMeL, Dab, D-Glu; lipidated K; amide; (2)..(2) Xaa at position 2 is Aib; (6)..(6) Xaa at position 6 is alpha-methyl-Phe(2F); (13)..(13) Xaa at position 13 is alpha-methyl-Leu; (16)..(16) Xaa at position 16 is Dab; MOD_RES (17)..(17) Lys at position 17 is chemically modified by conjugation of the epsilon-amino group of the Lys side chain with (2-[2-(2-amino-ethoxy)-ethoxy]-acetyl)2-(gamma-Glu)-CO-(CH2)18- CO2H; (20)..(20) Xaa at positi) [Peptide 172] — lower, 2.63
- Y-Aib-EGTFTSDYSILLDKIAQ-Aib-AFIEYLIK((2-[2-(2-Amino-ethoxy)-ethoxy]-acetyl)2-(γGlu)-CO—(CH2)18—CO2H)GG-NH2 (Y[Aib]EGTFTSDYSILLDKIAQ[Aib]AFIEYLIK([AEEA-AEEA-γGlu-C20 diacid])GG-NH2; N-terminus assumed; SMILES CC[C@H](C)[C@H](NC(=O)[C@H](CCCCN)NC(=O)[C@H](CC(=O)O)NC(=O)[C@H](CC(C)C)NC(=O)[C@H](CC(C)C)NC(=O)[C@@H](NC(=O)[C@H](CO)NC(=O)[C@H](Cc1ccc(O)cc1)NC(=O)[C@H](CC(=O)O)NC(=O)[C@H](CO)NC(=O)[C@@H](NC(=O)[C@H](Cc1ccccc1)NC(=O)[C@@H](NC(=O)CNC(=O)[C@H](CCC(=O)O)NC(=O)C(C)(C)NC(=O)[C@@H](N)Cc1ccc(O)cc1)[C@@H](C)O)[C@@H](C)O)[C@@H](C)CC)C(=O)N[C@@H](C)C(=O)N[C@@H](CCC(N)=O)C(=O)NC(C)(C)C(=O)N[C@@H](C)C(=O)N[C@@H](Cc1ccccc1)C(=O)N[C@H](C(=O)N[C@@H](CCC(=O)O)C(=O)N[C@@H](Cc1ccc(O)cc1)C(=O)N[C@@H](CC(C)C)C(=O)N[C@H](C(=O)N[C@@H](CCCCNC(=O)COCCOCCNC(=O)COCCOCCNC(=O)CC[C@H](NC(=O)CCCCCCCCCCCCCCCCCCC(=O)O)C(=O)O)C(=O)NCC(=O)NCC(N)=O)[C@@H](C)CC)[C@@H](C)CC) [Peptide 73] — higher, 7.73
- Y-Aib-EGT-αMeF-TSDYSI-αMeL-LDKK((2-[2-(2-Amino-ethoxy)-ethoxy]-acetyl)2-(γGlu)-CO—(CH2)18—CO2H)AQH-Aib-FIEYLIEGGPSSGAPPPS-NH2 (YXEGTXTSDYSIXLDKKAQHXFIEYLIEGGPSSGAPPPS; Aib, αMeF, αMeL; acylated lysine C20 diacid; amide; (2)..(2) Xaa at position 2 is Aib; (6)..(6) Xaa at position 6 is alpha-methyl-Phe; (13)..(13) Xaa at position 13 is alpha-methyl-Leu; MOD_RES (17)..(17) Lys at position 17 is chemically modified by conjugation of the epsilon-amino group of the Lys side chain with (2-[2-(2-amino-ethoxy)-ethoxy]-acetyl)2-(gamma-Glu)-CO-(CH2)18- CO2H; (21)..(21) Xaa at position 21 is Aib; MOD_RES (39)..(39) Ser at po) [Peptide 144] — higher, 4.23
- Y-Aib-EGT-αMeF-TSDYSI-Aib-LDEK((2-[2-(2-Amino-ethoxy)-ethoxy]-acetyl)2-(γGlu)-CO—(CH2)18—CO2H)AQ-Aib-EFI-(D-Glu)-YLIEGGPSSGAPPPS-NH2 (YXEGTXTSDYSIXLDEKAQXEFIXYLIEGGPSSGAPPPS; Aib, αMeF, D-Glu; lipidated K; amide; (2)..(2) Xaa at position 2 is Aib; (6)..(6) Xaa at position 6 is alpha-methyl-Phe; (13)..(13) Xaa at position 13 is Aib; MOD_RES (17)..(17) Lys at position 17 is chemically modified by conjugation of the epsilon-amino group of the Lys side chain with (2-[2-(2-amino-ethoxy)-ethoxy]-acetyl)2-(gamma-Glu)-CO-(CH2)18- CO2H; (20)..(20) Xaa at position 20 is Aib; (24)..(24) Xaa at position 24 is D-Glu; M) [Peptide 225] — higher, 3.80
